9 substances from publication PMC10140047 can be followed below.

Experiment [1] deals with RanBP2/NUP358 BICD2 Binding Domain (BBD), 2147-2287 (UniProt P49792). As to the kind of experiment: GST pull-down with purified proteins. The note with it: reference: wild type; sites S102.
Experiment [2] has as its target PLK1 PBD, 354-603 (Methods: 345-603) (UniProt P53350). As to the kind of experiment: GST-PBD pull-down from cell extracts. The settings on record: reference: wild type; sites T319,S320,T321.
Another experiment has as its target PLK1 (UniProt P53350). As to the kind of experiment: anti-GFP IP, PLK1 blot. The note with it: reference: wild type, sites T319,S320,T321.
The target of experiment [3] is dynein (cytoplasmic dynein-1, endogenous, detected by its intermediate chain DIC) (human (endogenous in HeLa)) (UniProt Q13409).
Experiment [4] has as its target GST-RanBP2 BBD phosphorylated by CDK1/cyclin B (human) (UniProt P49792). As to the kind of experiment: pull-down; GST-RanBP2 BBD on GSH agarose beads, untreated or pre-phosphorylated by CDK1/cyclin B1, incubated 90 min at RT with purified TwinStrep-BICD2 in Binding Buffer (50 mM Tris pH 7.4, 125 mM NaCl, 5 mM EDTA, 0.1% NP40); blot with anti-BICD2.

Sequence of dynein (cytoplasmic dynein-1, endogenous, detected by its intermediate chain DIC) (human (endogenous in HeLa)) (Q13409 whole entry, looked up): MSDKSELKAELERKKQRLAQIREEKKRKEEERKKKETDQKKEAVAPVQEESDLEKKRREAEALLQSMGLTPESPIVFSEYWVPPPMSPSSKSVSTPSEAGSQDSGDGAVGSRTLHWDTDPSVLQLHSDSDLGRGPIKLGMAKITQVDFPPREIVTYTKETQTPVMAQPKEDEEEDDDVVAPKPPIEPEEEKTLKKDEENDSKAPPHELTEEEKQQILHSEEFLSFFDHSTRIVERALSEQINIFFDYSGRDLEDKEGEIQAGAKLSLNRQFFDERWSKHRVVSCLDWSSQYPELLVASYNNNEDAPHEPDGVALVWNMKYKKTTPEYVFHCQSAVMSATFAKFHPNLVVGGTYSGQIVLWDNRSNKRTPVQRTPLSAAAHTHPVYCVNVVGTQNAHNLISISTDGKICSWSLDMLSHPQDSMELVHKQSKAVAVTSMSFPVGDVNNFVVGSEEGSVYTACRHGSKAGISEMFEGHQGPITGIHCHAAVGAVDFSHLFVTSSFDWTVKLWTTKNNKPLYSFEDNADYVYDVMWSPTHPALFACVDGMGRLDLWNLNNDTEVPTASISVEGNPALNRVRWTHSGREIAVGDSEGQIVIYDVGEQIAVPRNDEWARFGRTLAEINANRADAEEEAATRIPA
Sequence of GST-RanBP2 BBD phosphorylated by CDK1/cyclin B (human) (P49792 2147-2287): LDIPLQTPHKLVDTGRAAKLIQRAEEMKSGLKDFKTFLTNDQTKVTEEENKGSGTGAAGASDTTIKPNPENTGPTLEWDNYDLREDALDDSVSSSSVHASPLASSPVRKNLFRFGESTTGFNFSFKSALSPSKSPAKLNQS

On to “BICD2 (mouse, recombinant) (from UniProt Q921C5) S102D”, for which, in experiment [1], the fold change was found to be 12.
In the case of “BICD2 (mouse, recombinant) (from UniProt Q921C5) T319A/S320A/T321A”, the “binding against the reference” value in experiment [2] is on record as “lost”.
In the case of “BICD2 (mouse, recombinant) (from UniProt Q921C5) T319A/S320A/T321A, exponentially growing cells”, the “binding against the reference” value with PLK1 (exponentially growing cells) is “lost”.
In the case of “BICD2 (mouse, recombinant) (from UniProt Q921C5) T319A/S320A/T321A, mitotic cells”, in the experiment with PLK1 (mitotic cells), the “binding against the reference” value is on record as “lost”.
In turn, “GFP-BICD2 S102A (from UniProt Q921C5 1-820) (natural protein)” showed a percent of U2OS cells with clustered mitochondria, BICD2 form expressed as GFP-BICD2 S102A-MTD in experiment [3] of 43%.
On to “GFP-BICD2 S102D (from UniProt Q921C5 1-820) (natural protein)”, for which the percent of U2OS cells with clustered mitochondria, BICD2 form expressed as GFP-BICD2 S102D-MTD in experiment [3] turned out to be 61%.
Turning to “GFP-BICD2 [1–575] (from UniProt Q921C5 1-575) (domain or fragment)”, in experiment [3], the percent of U2OS cells with clustered mitochondria, BICD2 form expressed as GFP-BICD2 [1–575]-MTD was found to be 85%.
In experiment [3], “GFP-BICD2 wild type (from UniProt Q921C5 1-820) (natural protein)” came in with a percent of U2OS cells with clustered mitochondria, BICD2 form expressed as GFP-BICD2 WT-MTD of 50%.
Consider “TwinStrep-BICD2 S102D (from UniProt Q921C5 1-820) (natural protein)”, for which, in experiment [4], the fold binding against wild-type BICD2 on phosphorylated BBD was determined as 12 fold and the fold binding against wild-type BICD2 on unmodified BBD was determined as 400 times.
